Columns and labels:
[1] = biological target: T1, recombinant GR-1 receptor (canine parietal cell gastrin receptor) (Canis lupus familiaris, UniProt P30552); assay: Competition binding of 125I-CCK-8 to intact GR-1 transfected COS-7 cells
T1 construct: expressed in transfected cells; host or cells: COS-7 cells transiently transfected with GR-1 in pCDNA-1
T1 sequence (P30552 1-453): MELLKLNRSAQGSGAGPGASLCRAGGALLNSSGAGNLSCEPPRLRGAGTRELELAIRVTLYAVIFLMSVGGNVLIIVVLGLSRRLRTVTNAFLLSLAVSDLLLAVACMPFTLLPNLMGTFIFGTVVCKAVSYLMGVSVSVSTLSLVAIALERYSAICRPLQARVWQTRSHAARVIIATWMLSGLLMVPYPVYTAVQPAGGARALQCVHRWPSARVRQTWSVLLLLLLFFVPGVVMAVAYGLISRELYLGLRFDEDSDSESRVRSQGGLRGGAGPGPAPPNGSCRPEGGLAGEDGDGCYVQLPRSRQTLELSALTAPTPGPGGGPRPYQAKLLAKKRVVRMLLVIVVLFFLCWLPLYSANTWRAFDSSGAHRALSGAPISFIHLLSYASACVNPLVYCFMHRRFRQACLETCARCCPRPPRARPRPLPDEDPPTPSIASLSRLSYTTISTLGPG
Procedure: COS-7 cells (1.5x 10⁶) were plated in 10 cm culture dishes (Nunc) and grown in DMEM/ 10% fetal calf serum, 5% CO₂ at 37°C. […] Twenty-four hours following transfection, cells were split into 24-well dishes (Nunc), 5000 cells/well. […] Equilibrium binding occurred after incubation for 80 min at 37°C. Cell monolayers were subsequently washed three times and bound radioactivity was quantified after cell hydrolysis in 1 N NaOH.

[2] = biological target: T1, recombinant GR-1 receptor (canine parietal cell gastrin receptor); assay: Competition binding in isolated plasma membranes from GR-1 transfected COS-7 cells; conditions: isolated membranes from transiently transfected COS-7 cells, 60 min at 22°C; read-out: IC₅₀
Procedure: Binding parameters were also measured in isolated plasma membranes from COS-7 cells transfected with GR-1. Binding was performed for 60 min at 22°C.

[3] = biological target: T2, human brain CCK-B receptor (Homo sapiens, UniProt P32239); assay: Competition binding of 125I CCK-8 to COS-7 cells transfected with hCCKB-pcDNA I; conditions: recombinant human CCK-B receptor
T2 construct: isolate the corresponding full length human CCK-B receptor cDNA from a fetal (week 23) human brain library; expressed in transfected cells; host or cells: COS-7 cells transiently transfected with hCCKB-pcDNA I
T2 sequence (P32239 1-447): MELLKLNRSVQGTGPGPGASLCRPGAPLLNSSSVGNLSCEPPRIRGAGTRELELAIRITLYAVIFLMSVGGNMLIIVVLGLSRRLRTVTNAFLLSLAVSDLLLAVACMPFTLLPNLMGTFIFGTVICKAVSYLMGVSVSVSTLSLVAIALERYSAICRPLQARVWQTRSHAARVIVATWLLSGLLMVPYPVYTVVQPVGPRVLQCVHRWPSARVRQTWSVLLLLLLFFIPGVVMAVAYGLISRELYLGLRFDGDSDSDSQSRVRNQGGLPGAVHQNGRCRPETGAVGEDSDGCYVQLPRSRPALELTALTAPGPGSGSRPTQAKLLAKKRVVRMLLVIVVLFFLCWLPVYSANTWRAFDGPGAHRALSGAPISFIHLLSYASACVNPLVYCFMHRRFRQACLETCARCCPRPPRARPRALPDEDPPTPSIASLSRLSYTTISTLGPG

[4] = biological target: canine parietal cell gastrin receptor (recombinant, clone GR-1, expressed in transfected COS-7 cells) (canine); assay: competition against 125I-CCK-8, intact GR-1 transfected COS-7 cells
[5] = biological target: canine parietal cell gastrin receptor (recombinant, clone GR-1, expressed in transfected COS-7 cells) (canine); assay: competition against 125I-CCK-8, isolated membranes of GR-1 transfected COS-7 cells
[6] = biological target: canine parietal cell gastrin receptor (recombinant, clone GR-1, expressed in transfected COS-7 cells) (canine); assay: cell-based or functional assay
[7] = biological target: gastrin receptor on native canine parietal cells (canine); assay: radioligand saturation binding, native parietal cells
[8] = biological target: canine parietal cell gastrin receptor (recombinant, clone GR-1, expressed in transfected COS-7 cells) (canine); assay: radioligand saturation binding, GR-1 transfected COS-7 cells
[9] = biological target: canine parietal cell gastrin receptor (recombinant, clone GR-1, expressed in transfected COS-7 cells) (canine); assay: 125I-CCK-8 binding to GR-1 transfected COS-7 cells, no competitor (FIG. 3)

CSCC[C@H](NC(=O)[C@H](Cc1ccc(O)cc1)NC(=O)[C@@H](N)CC(=O)O)C(=O)NCC(=O)N[C@@H](Cc1c[nH]c2ccccc12)C(=O)N[C@@H](CCSC)C(=O)N[C@@H](CC(=O)O)C(=O)N[C@@H](Cc1ccccc1)C(N)=O [CCK-8-desulfate]
IC50 ([1]; intact GR-1 transfected COS-7 cells, 40 pM 125I-CCK-8 radioligand, 80 min at 37°C, read-out: IC₅₀): 1.4 nM | IC50 [2]: 1.5 nM

CN1C(=O)[C@@H](NC(=O)c2cc3ccccc3[nH]2)N=C(c2ccccc2)c2ccccc21 [L364,718]
IC50 ([1]; read-out: IC₅₀): 19 nM

Cc1cccc(NC(=O)N[C@@H]2N=C(c3ccccc3)c3ccccc3N(C)C2=O)c1 [L365,260]
higher affinity than L364,718 [3]: approximately 40 fold | IC50 [1]: 130 nM

CCK-8 (from UniProt P06307 96-103) (peptide)
IC50 [4]: 0.09 nM | IC50 [5]: 0.08 nM

CCK-8-desulfate (from UniProt P06307 96-103) (peptide)
IC50 [5]: 1.5 nM

gastrin I (from UniProt P01350 76-92) (peptide)
free cytosolic calcium, [Ca²⁺] [6]: 142 nM | free cytosolic calcium, [Ca²⁺], after chelation of extracellular calcium by EGTA (2.5 mM) [6]: 88.5 nM | level of Ins-1,3,4,5-P₄, increase [6]: 272% | level of Ins-1,4,5-P₃, increase over control [6]: 741% | IC50 [4]: 0.26 nM | IC50 [5]: 0.4 nM

¹²⁵I-CCK-8 (from UniProt P06307 96-103) (peptide)
Kd [7]: 0.27 nM | Kd [8]: 0.08 nM | Maximum binding in the absence of competitor (100%) [9]: 5.2 pM

— patent EP0561496A2 (NEW ENGLAND MEDICAL CENTER HOSPITALS, INC., priority 1992, dated 1993)
